Earlier results as cited in article PMC3774674.

Molecular target: E-cadherin EC12 (Mus musculus) (UniProt P09803)

- Kd: 98.6 µM
Substance: E-cadherin EC12 (from UniProt P09803)
